Twelve molecules from patent publication US20230416410A1 (ZOETIS SERVICES, published 2023) can be followed below.

Test [1] concerns the target T1, recombinant bovine FcgR3 (bovine, UniProt P79107 17-208, limits assumed, biotin on the BAP tag (BirA)).
T1 construct: also called bFcgR3; bFcgRIII
T1 sequence: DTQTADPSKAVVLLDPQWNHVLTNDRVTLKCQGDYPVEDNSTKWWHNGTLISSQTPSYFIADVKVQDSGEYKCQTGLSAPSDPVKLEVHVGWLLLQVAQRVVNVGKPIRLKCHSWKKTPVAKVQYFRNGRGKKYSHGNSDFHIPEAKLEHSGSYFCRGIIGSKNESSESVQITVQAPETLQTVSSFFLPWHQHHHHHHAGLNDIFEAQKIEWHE
The test is described as follows: SPR Biacore, biotinylated receptor on SA sensor, pH 7.4, 15 C. The method, then: (§1) A Biacore SPR binding assay was designed to test the affinity of bovine IgG subclasses to bFcgR1, bFcgR2 and bFcgR3. All reported KD's were measured by Biacore (Cytiva, Marlborough, MA, USA) using series S SA sensor. Biotinylated-bovine FcgR1, R2 and R3 were captured on the sensor surface using a modified SA capture method to reach the desired surface density. 10 mM HEPES, 150 mM NaCl, 3 mM EDTA, 0.05% v/v surfactant P20, pH7.4 buffer was used as the running and titration buffer. Various concentrations of bovine CTLA4-Fc fusions or mAbs were titrated and flowed over the receptor surface and affinities were determined using Biacore T200 Evaluation software (Cytiva, Marlborough, MA, USA) with 1:1 binding model. The method of double referencing has been applied where the reference flow cell was subtracted from the flow cell containing immobilized receptors and blank runs containing buffer only were subtracted out from all runs. Flow cells were regenerated using 10 mM Glycine pH1.5. Runs were performed at 15° C.
(§2) The ability to knock out binding to bovine Fc gamma receptors was evaluated by comparing SPR Biacore bFcgR affinity of bIgG1a and bIgG1b wildtype Fc to the bIgG1a and bIgG1b mutations, described above. All mutations made to bIgG1 are identical for the a and b allotypes. Biacore methods for bFcgR1, R2, and R3 were performed as described in Example 1.
Background: Surface plasmon resonance follows binding to a sensor surface in real time, without labels.

The target of test [2] is T2, recombinant bovine FcgR1 (bovine, biotin on the BAP tag (BirA)).
T2 construct: also called bFcgR1; bFcgRI
The test is described as above. The method, then: as §1, §2

The target in test [3] is T3, recombinant bovine FcgR2 (bovine, UniProt Q28110 43-225, limits assumed, biotin on the BAP tag (BirA)).
T3 construct: also called bFcgR2; bFcgRII
T3 sequence: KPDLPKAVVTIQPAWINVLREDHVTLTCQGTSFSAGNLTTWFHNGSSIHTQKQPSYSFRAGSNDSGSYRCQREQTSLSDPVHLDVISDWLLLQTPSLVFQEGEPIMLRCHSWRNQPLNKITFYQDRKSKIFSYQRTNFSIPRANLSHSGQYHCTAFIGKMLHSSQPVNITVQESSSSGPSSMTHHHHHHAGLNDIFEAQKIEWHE
Described as above. As for the experimental part: as §1, §2

Test [4] addresses T4, complement component C1q (in bovine complement preserved serum) (bovine, UniProt Q5E9E3 23-244; Q2KIV9 23-247). The test is described as follows: cell-based or functional assay.
For the next test, the target named is T5, CTLA4bG2a (canine; bovine, UniProt Q9XSI1 36-161, limits assumed).
T5 construct: No linker; also called bIgG2a wildtype (CTLA4 fusion); CTLA4 Fc bIgG2a wildtype
The test is described as follows: SPR Biacore, bFcg2R amine-coupled on CM5, pH 7.4, 15 C.

A further test deals with T6, CTLA4bG2b (canine; bovine, UniProt Q9XSI1 36-161, limits assumed).
T6 construct: No linker; also called bIgG2b wildtype (CTLA4 fusion); CTLA4 Fc bIgG2b wildtype
T6 sequence: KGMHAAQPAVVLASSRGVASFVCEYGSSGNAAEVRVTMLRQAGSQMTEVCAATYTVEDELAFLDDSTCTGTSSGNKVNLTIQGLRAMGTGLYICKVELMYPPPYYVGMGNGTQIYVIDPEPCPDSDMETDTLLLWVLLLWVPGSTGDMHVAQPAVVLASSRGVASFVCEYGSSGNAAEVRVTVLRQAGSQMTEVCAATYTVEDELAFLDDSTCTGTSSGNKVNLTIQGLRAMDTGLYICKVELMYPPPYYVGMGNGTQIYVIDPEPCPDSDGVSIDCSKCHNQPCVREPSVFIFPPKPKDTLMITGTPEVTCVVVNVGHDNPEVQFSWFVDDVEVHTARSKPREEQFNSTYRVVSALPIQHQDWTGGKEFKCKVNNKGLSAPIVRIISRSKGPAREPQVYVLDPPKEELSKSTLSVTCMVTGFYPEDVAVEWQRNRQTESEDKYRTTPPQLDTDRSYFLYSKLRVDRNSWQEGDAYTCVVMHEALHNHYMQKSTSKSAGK
Described as above.

The target of test [5] is T3, recombinant bovine FcgR2. The test is described as follows: SPR Biacore, biotinylated receptor on SA sensor, pH 7.4, 15 C. As for the experimental part: as §1
(§3) Biacore methods for bFcgR1, R2, and R3 were performed as described in Examples above. […] Although the two allotypes have different KDs for bFcgR2 and bFcgR3, both wildtype allotypes do bind. All of the mutations, bIgG3Win, bIgG3WinSAS, bIgG3SAS and bIgG3SAP for both the a and b allotypes knocked down binding to bFcgR1, bFcgR2 and bFcgR3 to negligible affinities. Thus, for knocking out receptor binding, the two allotypes compare similarly.
This is another data set of the same source.

In test [6] the target is T4, complement component C1q (in bovine …). The test is described as follows: cell-based or functional assay. This is another data set of the same source.
Test [7] concerns the target T1, recombinant bovine FcgR3. The test is described as follows: SPR Biacore, biotinylated receptor on SA sensor, pH 7.4, 15 C. As for the experimental part: as §1, §3
The source holds these as a separate data set.

Test [8] concerns the target T2, recombinant bovine FcgR1. Described as above. The method, then: as §1, §3
This is another data set of the same source.

A word on the Kd: it is the constant that tells how readily two partners part at equilibrium.

Numbering of substitutions follows the chain as printed. Where two headings read alike, the source gives them in different places.

T4 sequence (Q5E9E3 23-244, chain 1 of 2): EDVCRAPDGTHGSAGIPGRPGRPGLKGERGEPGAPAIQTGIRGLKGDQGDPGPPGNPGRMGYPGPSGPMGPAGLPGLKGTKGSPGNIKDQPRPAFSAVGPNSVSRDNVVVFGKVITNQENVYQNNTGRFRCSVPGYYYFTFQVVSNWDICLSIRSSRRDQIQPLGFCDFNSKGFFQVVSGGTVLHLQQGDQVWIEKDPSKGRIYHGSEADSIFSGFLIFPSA
T4 sequence (Q2KIV9 23-247, chain 2 of 2): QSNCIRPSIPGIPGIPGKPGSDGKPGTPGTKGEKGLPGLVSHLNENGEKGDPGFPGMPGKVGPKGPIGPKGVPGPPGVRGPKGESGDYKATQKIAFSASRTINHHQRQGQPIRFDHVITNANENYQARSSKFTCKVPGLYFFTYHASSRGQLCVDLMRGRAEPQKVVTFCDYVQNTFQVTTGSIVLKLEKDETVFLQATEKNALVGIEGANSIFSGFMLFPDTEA

B1: CTLA4 Fc bIgG1b (Fc fusion)
chain: DMHVAQPAVVLASSRGVASFVCEYGSSGNAAEVRVTVLRQAGSQMTEVCAATYTVEDELAFLDDSTCTGTSSGNKVNLTIQGLRAMDTGLYICKVELMYPPPYYVGMGNGTQIYVIDPEPCPDSDDPTCKPSPCDCCPPPELPGGPSVFIFPPKPKDTLTISGTPEVTCVVVDVGHDDPEVKFSWFVDDVEVNTATTKPREEQFNSTYRVVSALRIQHQDWTGGKEFKCKVHNEGLPAPIVRTISRTKGPAREPQVYVLAPPQEELSKSTVSLTCMVTSFYPDYIAVEWQRNGQPESEDKYGTTPPQLDADSSYFLYSKLRVDRNSWQEGDTYTCVVMHEALHNHYTQKSTSKSAGK
notes: No linker; also called bIgG1b wildtype; CTLA4 Fc bIgG1b wildtype
B1: the Kd in the test with recombinant bovine FcgR3 [1] amounted to 13.7 nM; with recombinant bovine FcgR1 [2], 0.463 nM; in the test with recombinant bovine FcgR2 [3], 2.48 nM. For the same molecule, the “CDC EC50 Value” in [4] is 0.036 µg/mL.

B2: CTLA4 Fc bIgG1bWinSS (Fc fusion)
chain: B1 chain with L142A, P143A, G145A, A238S, P239S
notes: No linker
Take B2: the Kd with recombinant bovine FcgR1 [2] stood at 70.4 nM.

B3: CTLA4 Fc bIgG1bSAP (Fc fusion)
chain: B1 chain with P237S
notes: No linker
In the case of B3, the binding result in the test with recombinant bovine FcgR2 [3] is “no binding”.

B4: CTLA4 Fc bIgG1bWinSAS (Fc fusion)
chain: B1 chain with L142A, P143A, G145A, P237S, P239S
notes: No linker
For the molecule B4, the binding result in the test with recombinant bovine FcgR2 [3] is on record as “no binding”.

B5: CTLA4 Fc bIgG1bWin (Fc fusion)
chain: B1 chain with L142A, P143A, G145A
notes: No linker
In the case of B5, the Kd was found to be 3.73 nM with recombinant bovine FcgR1 [2] and 3.24 nM in the test with recombinant bovine FcgR2 [3]. Moreover, the “CDC EC50 Value” in [4] is 0.015 µg/mL.

B6: CTLA4 Fc bIgG1bSAS (Fc fusion)
chain: B1 chain with P237S, P239S
notes: No linker
Consider B6, for which, in the test with recombinant bovine FcgR2 [3], the binding result is “no binding”.

B7: recombinant bovine Fcg2R (receptor)
chain: GTFPKPIIWAEPSSVVPLGSSVTILCQGPPNTKSFSLNKEGDSTPWNIHPSLEPWDKANFFISNVREQQAGRYHCSHFIGVNWSEPSEPLDLLVAGEEPAGRLRDRPSLSVRPSPSVAPGENVTLLCQSGNRTDTFLLSKEGAAHRPLRLRSQDQDGWYQAEFSLSPVTSAHGGTYRCYRSLSTNPYLLSQPSEPLALLVADYTMQNLIRMGLAASVLLLLGILLCQARHDHGGAREAARS
modifications: biotin on the BAP tag (BirA)
For the molecule B7, the equilibrium dissociation constant (Kd) with CTLA4bG2a stood at 41.7 nM; with CTLA4bG2b, 31.4 nM.

B8: CTLA4 Fc bIgG3bSAP (Fc fusion)
chain: DMHVAQPAVVLASSRGVASFVCEYGSSGNAAEVRVTVLRQAGSQMTEVCAATYTVEDELAFLDDSTCTGTSSGNKVNLTIQGLRAMDTGLYICKVELMYPPPYYVGMGNGTQIYVIDPEPCPDSDTARRPVPTTPKTTIPPGKPTTQESEVEKTPCQCSKCPEPLGGLSVFIFPPKPKDTLTISGTPEVTCVVVDVGQDDPEVQFSWFVDDVEVHTARTKPREEQFNSTYRVVSALRIQHQDWLQGKEFKCKVNNKGLSAPIVRTISRTKGQAREPQVYVLAPPREELSKSTLSLTCLITGFYPEEIDVEWQRNGQPESEDKYHTTAPQLDADGSYFLYSRLRVNKSSWQEGDHYTCAVMHEALRNHYKEKSISRSPGK
notes: No linker
Regarding B8, in the test with recombinant bovine FcgR2 [5], the binding result is given as “no binding”.

B9: CTLA4 Fc bIgG3bWin (Fc fusion)
chain: B8 chain with P164A, L165A, G167A, S259P
notes: No linker
Take B9: the binding result with recombinant bovine FcgR2 [5] was “no binding”. For the same molecule, the “CDC EC50 Value” in test [6] turned out to be 0.062 µg/mL.

B10: CTLA4 Fc bIgG3bWinSAS (Fc fusion)
chain: B8 chain with P164A, L165A, G167A, P261S
notes: No linker
On to B10, for which the binding result with recombinant bovine FcgR2 [5] was “no binding”.

B11: CTLA4 Fc bIgG3bSAS (Fc fusion)
chain: B8 chain with P261S
notes: No linker
Consider B11, for which the binding result with recombinant bovine FcgR2 [5] is reported as “no binding”.

B12: CTLA4 Fc bIgG3b (Fc fusion)
chain: B8 chain with S259P
notes: No linker; also called bIgG3b wildtype; CTLA4 Fc bIgG3b wildtype
With B12, the results for the Kd in the test with recombinant bovine FcgR3 [7], with recombinant bovine FcgR1 [8] and with recombinant bovine FcgR2 [5] were 49.6 nM, 12.5 nM and 706 nM, respectively. Besides, the “CDC EC50 Value” in test [6] worked out at 0.028 µg/mL.
